Assay results published in patent US20120204282.

What was measured:
Test in all cases: cell_activity
[1] = test system: ZFN 23974 (synthetic construct); details: Cel-I assay; as pair 23966/23974
[2] = test system: ZFN 22524 (synthetic construct); details: Cel-I assay; as pair 22524/23947; pair also used for in vivo Q344X correction in mouse retina
[3] = test system: ZFN 22529 (synthetic construct); details: Cel-I assay; as pair 23950/22529
[4] = test system: ZFN 23950 (synthetic construct); details: Cel-I assay; as pair 23950/22529
[5] = test system: ZFN 23966 (synthetic construct); details: Cel-I assay; as pair 23966/23974
[6] = test system: ZFN 23947 (synthetic construct); details: Cel-I assay; as pair 22524/23947; pair also used for in vivo Q344X correction in mouse retina

Question: How did the activity [1] turn out when “ATGTCCAGGCTGCTGCCTCGGTCCCATT (double strand) [RHO intron 1 site for 23974]” was run?
Answer: 9.3 % NHEJ

Question: For “CAGTGGGTTCTTGCCGCAGCAGATGGTG (double strand) [RHO exon 5 site for 22524]”, which activity [2] is on record?
Answer: 11.5 % NHEJ

Question: For “GAGCCATGGCAGTTCTCCATGCTGGCCG (double strand) [RHO exon 1 site for 22529]”, which activity [3] is on record?
Answer: 8.7 % NHEJ

Question: For “GCCAGGTAGTACTGTGGGTACTCGAAGG (double strand) [RHO exon 1 site for 23950]”, which activity [4] is on record?
Answer: 8.7 % NHEJ

Question: For “GGGGAGACAGGGCAAGGCTGGCAGAGAG (double strand) [RHO intron 1 site for 23966]”, which activity [5] is on record?
Answer: 9.3 % NHEJ

Question: With “GTGACGATGAGGCCTCTGCTACCGTGTC (double strand) [RHO exon 5 site for 23947]” as the sequence, how does the activity [6] read?
Answer: 11.5 % NHEJ
